Experimental data: patent US10000743B2, “2-deoxy-scyllo-inosose reductase” (Asahi Kasei Chemicals Corporation, priority 2013, dated 2018)
Marks after values point to notes of the source that are not given here.

Legend:
[1] = biological target: T1, DOI reductase from Burkholderia terrae strain AKC-020 (Paraburkholderia terrae, UniProt A0ABM7TVX3); experiment: Km value and Vmax of purified DOI reductase; type: biochemical
Procedure: (§1) The protein concentration of the enzyme solution was also measured by the Bradford method.

[2] = biological target: T1, DOI reductase from Burkholderia terrae strain AKC-020; experiment: Substrate specificity of purified DOI reductase (oxidation reaction, NAD+ to NADH at 340 nm); type: biochemical; settings: substrate 5 mM
Procedure: A quantity of 10 μL of enzyme solution was added to 980 μL of 0.1 M buffer containing 1.0 μmol of NAD^+ and prewarmed for five minutes at 25° C. A quantity of 10 μL of each 0.1 M substrate was added and mixed immediately. The rate of increase in the absorbance (wavelength 340 nm) over two minutes was measured by spectrophotometer, and the activity by each substrate was compared. […] In the table, N.D. means that no reaction could be detected.

[3] = DOI reducing activity of recombinantly expressed inositol dehydrogenases/DOIR; type: biochemical; settings: for DOI reducing activity: expressed in E. coli BL21 (DE3); for catalytic activity to convert 2-deoxy-scyllo-inosose into (−)-vibo-quercitol / reduction of DOI (in words): recombinant expression in Escherichia coli
Procedure: Specifically, the reaction solution composition other than DOI (990 μL) was taken by cuvette and prewarmed for approximately 5 minutes at 25° C. After adding DOI solution (10 μL) and mixing quickly, the rate of decrease in the absorbance (wavelength […]) over two minutes was measured using a spectrophotometer (Shimadzu, UV-2550) regulated to 25° C. with water as the control, and the decrease in absorbance per minute was calculated. Next, each strain was evaluated by calculating the U per mL of crude enzymatic solution, defining the amount that decreases [sic; converts]
Furthermore, inositol dehydrogenase (Sf-Idh) from Sinorhizobium fredii USDA191 is an enzyme that oxidizes myo-inositol, and iolX (Bs-IolX) from Bacillus subtilis 168 is reported to encode an enzyme showing activity on scyllo-inositol. In addition, iolW (Bs-IolW) is said to be an NADPH-dependent inositol dehydrogenase. These six genes were introduced into an expression vector Pet21B(+) (Merck), and expressed by E. coli BL21 (DE3).

[4] = Conversion of DOI to quercitol by enzymes from recombinant E. coli (HPLC, diastereomer excess); settings: for Conversion rate: DOI to quercitol; for (−)-Vibo-quercitol produced: conversion of DOI; for Diastereomer excess of scyllo-quercitol: DOI converted to scyllo-quercitol
Procedure: Specifically, DOI conversion was carried out using a coenzyme regeneration system by formate dehydrogenase (FDH hereinafter, Roche Diagnostics Inc., product no. 244678). […] The reaction solution was incubated for three hours while shaking at 30° C.

[5] = substrate: O[C@@H]1[C@@H](O)[C@H](O)C[C@@H](O)[C@H]1O; experiment: purified protein, by the assay type; settings: other: oxidation reaction
[6] = substrate: NC(=O)c1ccc[n+]([C@@H]2O[C@H](COP(=O)(O)OP(=O)(O)OC[C@H]3O[C@@H](n4cnc5c(N)ncnc54)[C@H](O)[C@@H]3O)[C@@H](O)[C@H]2O)c1; experiment: Km value and Vmax of purified DOI reductase; type: biochemical, Burkholderia terrae; settings: other: 0.1M Gly-NaOH, pH 9.0
Procedure: as §1

[7] = substrate: O=C1C[C@@H](O)[C@H](O)[C@@H](O)[C@@H]1O; experiment: Km value and Vmax of purified DOI reductase; type: biochemical, Burkholderia terrae; settings: other: reduction reaction
Procedure: as §1

[8] = Optimum pH of purified DOI reductase (DOI reduction, NADH decrease at 340 nm); type: biochemical; settings: buffers of each pH, 25° C.
Procedure: A quantity of 10 μL of 0.1 M DOI was added and mixed immediately. The rate of decrease in the absorbance (wavelength 340 nm) over two minutes was measured by spectrophotometer, and the activity was compared at each pH.

[9] = activity relative to the culture broth

O=C1C[C@@H](O)[C@H](O)[C@@H](O)[C@@H]1O [DOI, 2-deoxy-scyllo-inosose]
Vmax to DOI ([1]; reduction reaction): 116.28 U/mg

O[C@@H]1[C@@H](O)[C@H](O)C[C@@H](O)[C@H]1O [(−)-vibo-quercitol, (1R,2R,4S,5R)-cyclohexane-1,2,3,4,5-pentol]
Substrate specificity (oxidation reaction) ([2]; pH 8.0, 25° C.): 8.21 U/mg
Substrate specificity (oxidation reaction) ([2]; pH 9.0, 25° C.): 13.93 U/mg
Vmax to (−)-vibo-quercitol ([1]; oxidation reaction): 16.45 U/mg

O[C@H]1[C@H](O)[C@@H](O)[C@H](O)[C@@H](O)[C@H]1O [Myo-inositol]
Substrate specificity (oxidation reaction) ([2]; pH 8.0, 25° C.): 3.21 U/mg
Substrate specificity (oxidation reaction) ([2]; pH 9.0, 25° C.): 5.71 U/mg

B1: BS-IolW: NADPH-dependent inositol dehydrogenase from Bacillus subtilis 168, homology with DOIR 27% (protein, UniProt O32223 1-358, looked up)
scyllo-inositol …: MITLLKGRRKVDTIKVGILGYGLSGSVFHGPLLDVLDEYQISKIMTSRTEEVKRDFPDAEVVHELEEITNDPAIELVIVTTPSGLHYEHTMACIQAGKHVVMEKPMTATAEEGETLKRAADEKGVLLSVYHNRRWDNDFLTIKKLISEGSLEDINTYQVSYNRYRPEVQARWREKEGTATGTLYDLGSHIIDQTLHLFGMPKAVTANVMAQRENAETVDYFHLTLDYGKLQAILYGGSIVPANGPRYQIHGKDSSFIKYGIDGQEDALRAGRKPEDDSWGADVPEFYGKLTTIRGSDKKTETIPSVNGSYLTYYRKIAESIREGAALPVTAEEGINVIRIIEAAMESSKEKRTIMLEH
DOI reducing activity ([3]; using NADPH as coenzyme): 0.69) (using NADPH as coenzyme) U/Ml culture
catalytic activity to convert 2-deoxy-scyllo-inosose into (−)-vibo-quercitol / reduction of DOI (in words) [3]: low ability
Remaining DOI [4]: 9.9 mM

B2: Pa-Idh: inositol dehydrogenase from Pantoea sp. At-9b, homology with DOIR 58% (protein)
chain: MKIAVLGAGRIGNVHAMNVASNPNVELVAIADPFIDNAIKLTEKYGGKAVKEPMELIESNAVDAVIIATPTDTHVDLMLSAARNGKAVLCEKPVDLNLERAEVACAELKQCDVPVMIAFNRRFDPSAAEMHSAIAKGEVGELHQIMISSRDPGFASMDYLRHSGGIFRDMTIHDFDMARWLLGEEPVQVFASASRMLEPALEPLNDFDTVMVQMITKSGKQCHINCSRQAVYGHDQRIEAYGSAGMLLNDNLRPSTLRRFNKSATDARVPLVHFFLERYADAYRMELEAFISAVKHAKPVPVTPYDGYMALKLADCAQQSAETGLPVQL
modifications: Pantoea sp. At-9b
DOI reducing activity [3, 9]: 8.4 U/Ml culture
Conversion rate ([4]; from recombinant E. coli): ≥99%
(−)-Vibo-quercitol produced ([4]; from recombinant E. coli): 9.9 mM

B3: BS-IolX: iolX enzyme from Bacillus subtilis 168, reported activity on scyllo-inositol, homology with DOIR 36% (protein, UniProt P40332 1-342, looked up)
scyllo-inositol …: MEHQVRCAVLGLGRLGYYHAKNLVTSVPGAKLVCVGDPLKGRAEQVARELGIEKWSEDPYEVLEDPGIDAVIIVTPTSTHGDMIIKAAENGKQIFVEKPLTLSLEESKAASEKVKETGVICQVGFMRRFDPAYADAKRRIDAGEIGKPIYYKGFTRDQGAPPAEFIKHSGGIFIDCSIHDYDIARYLLGAEITSVSGHGRILNNPFMEQYGDVDQALTYIEFDSGAAGDVEASRTSPYGHDIRAEVIGTEGSIFIGTLRHQHVTILSAKGSSFDIIPDFQTRFHEAYCLELQHFAECVRNGKTPIVTDIDATINLEVGIAATNSFRNGMPVQLDVKRAYTGM
DOI reducing activity [3, 9]: 0.13 U/Ml culture
catalytic activity to convert 2-deoxy-scyllo-inosose into (−)-vibo-quercitol / reduction of DOI (in words) [3]: low ability
Remaining DOI [4]: 0.4 mM
Diastereomer excess of scyllo-quercitol ([4]; from recombinant E. coli): ≥99%
Diastereomer excess of scyllo-quercitol ([4]; from recombinant E. coli, listed as Bs-IolX): 99%
Conversion rate ([4]; from recombinant E. coli): 96%
scyllo-quercitol produced (printed in the (−)-vibo-quercitol column, footnote *) ([4]; from recombinant E. coli, converted into scyllo-quercitol): 9.6* mM

B4: DOI reductase from Burkholderia terrae strain AKC-020 (Paraburkholderia terrae) (protein)
chain: MIRIAVLGAGRIGRIHAGNVAASPNAQLVVVADPVESAAKSLATRLGCEASTDPAGVLERKDIDAVVIGTPTDTHITFMLEAVRRGKAVLCEKPIDLDMEKSLAAANEVERQRGRVMLAFNRRFDPTSQAFRNAIDAGDVGEVRQVIISSRDPGMPPRDYVEHSGGIFRDMVIHDLDMARWLLGEEPVEVMAMASRLIDESLEKLTDFDTVMVQLRTASGKQCHINCCREAVYGYDQRMEVSGSKGMLLQENLRPSTIRRWSKEATDVREPLLNFFLERYEAAYKAELEAFVDALNTNSPLPTSVQDGLKALRLADAALESALSGKAVKV
Km [5]: 1.60 mM, 16.45 U/mg mM
Km [6]: 0.11 mM (0.1M Gly-NaOH, pH 9.0) mM
Km [7]: 0.41 mM, 116.28 U/mg mM

B5: DOIR: 2-deoxy-scyllo-inosose reductase from Burkholderia terrae strain AKC-020, amino acid sequence SEQ ID NO: 2 (protein)
chain: B4 chain
modifications: Burkholderia terrae AKC-020
DOI reducing activity [3, 9]: 11.2 U/Ml culture
Conversion rate ([4]; from recombinant E. coli): ≥99%
(−)-Vibo-quercitol produced ([4]; from recombinant E. coli): 9.9 mM
pH of maximum activity [8]: 7.0-9.0

B6: Bh-IolG: inositol dehydrogenase from Burkholderia sp. SJ98, homology with DOIR 79% (protein)
chain: MTRIAVLGAGRIGKIHAANVASNSDAKLVVVADPFEGAANSLAEKLGCEASTDCLSVIERDDVDAVVIGTPTDTHIQFMLHAVSKGKAVLCEKPIDLDMKKSLAAAKEVERHDGRVMLAFNRRFDPTSQAFRKAIDDGEVGDVRQVVITSRDPGMPPREYVTHSGGIFRDMVIHDLDLARWFLGEEPIEVMATGSRLVEPSLAEVPDFDTVMLQLRTESGKQCHINCCREAVYGYDQRLEVFGSRGMLLQENLRPSTIRRWSASATDAREPLLNFFLERYEAAYKTELTAFVEALRTNTTFPTSVADGLKALRLADCALESAMSCRSVKV
modifications: Burkholderia sp. SJ98
DOI reducing activity [3, 9]: 11.7 U/Ml culture
Conversion rate ([4]; from recombinant E. coli): ≥99%
(−)-Vibo-quercitol produced ([4]; from recombinant E. coli): 9.9 mM

B7: Ps-Idh: inositol dehydrogenase from Pseudomonas synxantha BG33R, homology with DOIR 68% (protein)
chain: MLRIAVLGAGRIAKIHAANVAAHPNATLVLVADPWREGVDALSTQLGCEAAYDCAAVLNRKDIDAVVIGTPTDTHIDLLLAAVAQGKAVLCEKPIDLDIAKARSAAQTVERQGGKVMLGFNRRFDPDMLRLRQALDAGQIGAVRQVIITSRDPGLAPREYLEHSGGILRDMTIHDFDTARHLLGEEPVQVSAFASRLVDPSLEQIDDYDSVMVLLRTASGKQCHINCCRQAVYGYDQRVEVSGASGVLLTDNHRPSTLRHWSAEHTEALEPLQHFFLERYADAYRNELMQFVDALNEGRELPTGMRDGLYALHLADCALESVKTGRSVAVCYDR
modifications: Pseudomonas synxantha BG33R
DOI reducing activity [3, 9]: 9.8 U/Ml culture
Conversion rate ([4]; from recombinant E. coli): ≥99%
(−)-Vibo-quercitol produced ([4]; from recombinant E. coli): 9.9 mM
